Assay results taken from the supplement of paper PMC11502859.

These substances were tested on HEK293T (assay: median enrichment of reporter reads in eGFP-reduced (low/intermediate) vs eGFP-high sorted cells (eGFP-extension fusion abundance) (ratio); higher = stronger loss of eGFP-fusion protein abundance (more destabilising extension)).
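Further: lentiviral eGFP-IRES-mCherry reporter pool sorted by FACS 96 h post-transduction, gated on mCherry-high cells, Illumina read counts normalized per million, median across four biological replicates.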

Substance | median enrichment
WQDLLTSS [VN1R4] | 0.623
WQGLPQHQSGDCDREGLAGTPRASGVVTDQEGLARTSANICGAAANNAAITENMVLVLKNVQCHFQQFKINRQNHPVARIT [OR2T2] | 6.25
WQHFCILKKCNLFLITALKL [UBQLN1] | 12.2
WQKSKGHPVPGRLSGICSPVPGTKSSTAAVKKHALESLEHEEKQGLVHMFFGISL [IL1RAPL1] | 10.6
WQLPGDSRLSDSLQEKTVRPPFGPH [SYCE2] | 0.972
WQMVIPFYFSS [CXorf1] | 10.3
WQP [TP53AIP1] | 0.544
WQPPASHTVLQLTAHVHAVRADSSSTQQTRTYGLWMDADDGTVQ [CALN1] | 8.36
WQQPQG [CCNB3] | 0.678
WQRRS [GIMAP1] | 0.693
WRATGPQQCEGSLAAHPAAGAQPLPGMRLSADGETATQSFGLCVCVCVCVCVCAHPRVPVCVRILPPGAEVPWVSPLLCNGLL [FGFR3] | 3.69
WRCRHPSPIIKST [CPS1] | 8.4
WREGSNGSRELDTVHPNTSPPPGHLEESSARIPRQSSPPAPAVPSCAVLLPHSAPGPCPFIPLKHPLKPLHHFHSQQKVIEHL [HAUS5] | 4.17
WRFLLKLTLFHLSF [VHL] | 9.11
WRFPLPSSQPP [MEF2D] | 2.36
WRGARAPWSL [CEP104] | 1.95
WRGEGRPAVDSLILGRSLGCAAISFCECANTKLSRAKL [SLC25A25] | 6.74
WRGLQGSLLWVPT [RNF152] | 6.67
WRKRDAGTHPCLREVWLSPNPPHRPPFTKHLSCLMCPIELHSVRLDAVISGTYVTMFAEAPGVVGRGGRCG [RNF144A] | 6.33
WRLIIYQEC [PKIB] | 7.89
WRLRASRRDLMPRGGGCL [CTU1] | 5.49
WRLSISRDMVLTQQFPVMAKCSI [IL13RA2] | 5.59
WRPAPARMGGGVERRTPIG [NSG2] | 3.66
WRPGRRGPSSGG [Degron KLHDC2] | 10.7
WRPNSRTPK [SNRNP35] | 0.861

Substance | median enrichment
WRPPHFRFGFRKTFSEKKLFF [TFDP1] | 5.19
WRPRIQH [FAR1] | 1.02
WRQRGGKETWLSLIICIQITVL [ATXN1] | 8.6
WRRLVSTHSGAFLISSSHTNHPSLPIVSSSQ [CYP19A1] | 12.8
WRSCAAQSQTPAPTTYFCYTQEHFRKLSQLIFCFSSMSILSVSHFEDFFSLLYLCFSFFGFYFVVLSVIFNVPKICTCSIKNV [HOOK3] | 2.08
WSAVA [EFCAB2] | 0.771
WSDCPENQKSKETRETSSLVNEPIKSRSLKKYVSVKKENRIVTVSSKTNKSKSSPLEHSESDTLGCDFEFQESIHSLSHLSYD [CEP78] | 1.3
WSFSHSSPSQRCDGRWTLSGEDALLLGRCSGSFSGARTEAPCDFRPGSMWACNFLHSQLGPIPGFKMVAIPEESP [SUSD1] | 3.48
WSGKLGAFGLKGRMFPVFLDNKLGK [PKHD1] | 11.8
WSICLLNDTSLIYCTIS [RTCA] | 12.5
WSILQDLPEAA [PCDH10] | 9.03
WSLKWRTCVFIISAKVLTSCAFPITSRSNYQLVWIFGPPFSHFGLPCSQNILNESIGIQKDSRQNERK [VCAN] | 11.9
WSLRWSFVTARFARHLPGWLVLG [ARHGEF26] | 15.8
WSLTRSLISRSTCVFIPPGN [FLT1] | 4.28
WSLVTPIEI [OR52A5] | 7.53
WSPLSRDSGKGGFLHPTPLLPWL [KIAA1191] | 5.6
WSPMPAHL [CDNF] | 9.59
WSPQHQGGPSLKRKEPTQVRGLPIPPSQVSTFALPPSHWGPCRSWSGLTVPSPGTQLKGPQPKL [CAND2] | 8.57
WSPTRPERPEMVLTMLPANRSRKPACE [ANXA2] | 1.38
WSQFPVTRTILATLFESIQVVWPMILLLTYLSTSSGPCPFGKLSFFLLHWGTGC [CLEC5A] | 9.24
WSQLTSLSRKVYP [CD9] | 1.91
WSRS [LCE3E] | 1.42
WSSSSNSICKEHFSLKTCIWIIIITTF [CCDC148] | 3.42
WSSSSSFIGLSGC [EDARADD] | 1.2
WSSVVE [TMEM17] | 0.673

Substance | median enrichment
WSTPAWYRHTQGLPCLHSPA [PDZD3] | 5.04
WTAERTMHPSAWWSLRDRSDDPRRLWRTI [LILRA2] | 6.78
WTGFAYLVLTLHHHHLMPTCPHPAELLSGHSLLLPFLLPLALPGPACTPVGWKCTAGSGSGSAPLWDPTFFSSLLLK [PTPN23] | 7.32
WTHPLVVDRLPGTTIIPGPPRASEFETLAEIK [TBC1D7] | 4.38
WTTNTQRNNLFTTPGCMIEGEASTSTSRGP [TTLL5] | 16.4
WTYVLC [OR2L5] | 7.99
WVAPPSWGEVPSRLRRRGARGRS [PHLDB3] | 16.2
WVDGRNIFINQIESIYKNGSRILPQFFCQKVCIYVCIYIYLYIYMTDVF [GCC2] | 11.6
WVEKKKKIKKQNKTHAPKK [NPIPB6] | 1.29
WVGGISETGKVAALSHFFWNSWWSPGLGHCLSPACFFVRSGIISKCS [SLC35E2A] | 40.8
WVKEEKPSTP [TAS2R19] | 0.336
WVLIPTFPCDLGCRCSCCKMEANLTGVL [ADD2] | 6.13
WVLSRAVEVPVIPAGAAATQSGRQGGEHLSATETNHSLFAQHASSSVLHSSPGSLSGSSTESFCSLKCWDA [CGNL1] | 8.11
WVPSEVFIPACVI [VPS13B] | 13.3
WVSAVLGTPAHSTLLEYLFPNATSVCFFLFPQSLSVSEPWAL [LALBA] | 10.8
WVVGSPADGSTWTWG [GABARAPL1] | 6.43
WWF [LRRCC1] | 1.79
WWHELLASLDGQSKKKLVYFVQICHKLKAVTGEKD [PIWIL4] | 22.9
WWLWLQRT [FAAH] | 11.2
WWPRIPIEQHKARLG [RNF216] | 26.7
WWRDTRGLATLWGNWHQELLHLVSAQVDLRKGWIPVPEHQIPRQLMRLAQCVTEAPGSQQSRAYSAHQAEQATGRDDASGQGS [CCDC137] | 7.53
WWSCDVHEVLPHALEGSESRVNCPADILLGFLA [SLC7A6OS] | 8.62
WWW [Trp03] | 2.55
WWWRHAQWMILLLPATSTSRNESLGGCQELVLAPPPP [MAP4K1] | 13
WWWW [Trp04] | 7.39

Substance | median enrichment
WWWWW [Trp05] | 7.38
WWWWWW [Trp06] | 3.74
WWWWWWW [Trp07] | 3.21
WWWWWWWW [Trp08] | 4.57
WWWWWWWWW [Trp09] | 3.84
WWWWWWWWWW [Trp10] | 4.65
WYHMFSWYVN [ABHD10] | 5.5
WYSFHYSI [BTN3A3] | 6.28
WYTF [PNISR] | 2.74
YAAIDSRSLYTVTSEDYT [SLC46A3] | 6.41
YAATAKKNRVRKLLGWVDLGIFYLVKALYSHRRKIWDISIIYILI [RFPL3] | 45.1
YAATDLGHLSQLAHPPPLPNFRYLSILLK [FBXL6] | 5.29
YAKSRCTQHVLGMQPQEVPDLKQPDSYLA [GREM1] | 22.9
YALDKNLNRKNNSKAYLMKQ [CYLC2] | 2.34
YALGKKDCNQRKSIGVEEIKLTLFWLFF [GLI3] | 23.4
YALNINSVLQIFITYLLQSQNPKIFIKSKYLMSFEGSLSYTK [C10orf88] | 1.47
YALPSWPLISAWVDHPRLQRVEGGSSSWESF [TMEM214] | 7.05
YAPL [SLC3A1] | 0.632
YAPRR [OTUD6A] | 0.578
YAQLAICKVTSAKFSFGSYPRAPMSSYQEVINVTPFHRLKGVITLLLG [PAFAH2] | 4.37
YAQP [MST1] | 0.278
YAQPGPQIRSAQQRPGPSSRTTRPHHASCSQTQN [CCDC27] | 0.132
YARWLRNTGEASAFGKEICFGDDLSGNLNLLL [GBA3] | 5.41
YASHLASWVCRSSRLAPSMYPGEIPARHPPPGPG [LSP1] | 4.74
YASLAAGTSTWRS [CRB2] | 2.41

Substance | median enrichment
YASRRRRRRGRAAGGTAQATQGRPLRPGGQGGRPASGDRLPPGLWQDVPSEGYFEEPPGPGDREAPVSSMNALPRTQARASGV [MSANTD1] | 1.01
YATRRCPRPSRRRGSLAGAAPPCVRPAGAHVF [HHIPL1] | 11.3
YAVGTESEYF [GFRA2] | 0.617
YAVQSSFSGA [NLRP8] | 5.86
YCLKGFY [GNL2] | 8.39
YCLRGRLAASPAPPDLAPRAAAGAAACPGPPLRPASSRRPGAQPCAAEDSRDWRRPRPATAGARGHLPGLLTLSPHWEWAPRG [TMUB1] | 5.27
YCLSILVHGCFERYGRQSPGHN [MAGEC3] | 5.24
YCPGVCCLAHMSLL [CLSTN2] | 19.2
YCPRAHRQLQGALVANKQHL [RAB3C] | 2.13
YCRREVSSLCLVCNSSWA [REG3A] | 7.13
YDFQKTLILFLKL [PRDM1] | 8.51
YDGAVTERTQESGTPPGIPSTFSCSWERPGGGAHWEGQDSVPALILPCPDVSCFAQRSFLSTPLIPRLVPREGWRPGHGPSRR [ASIC4] | 4.69
YDGGQIKVLAFRCL [KCNMB3] | 9.29
YDGHISFIGE [CFLAR] | 0.753
YDGR [ZNF772] | 0.299
YDHPTTRSAANSGLSLGVAPSLLLPLN [TRIB3] | 6.29
YDHSGQDHSGHGHGHSHGGHGHSH [S100A9] | 0.275
YDLEFC [PQLC2L] | 0.999
YDLIQHRNDSH [IFNA6] | 0.697
YDPCGRPLPPSHRLPHHSCLVLGRPHCALALGLPSLLQQGTGALARVTD [GTF3C1] | 6.87
YDSISP [CBLN4] | 0.384
YDSLVL [ALDH5A1] | 0.258
YDSNPDPGLIFQSPPSCGTASVC [NFKBID] | 4.34
YDSPGLKLGSRPAR [PTGDS] | 3.48
YDTP [CD1A] | 0.395
